Reference: US20250387492A1, “HSP90-TARGETING CONJUGATES AND FORMULATIONS THEREOF” (Fusion Pharmaceuticals Inc., priority 2018, published 2025)
“And” between values parts separate entries of the source, which are not always exact repeats. Equal values may be shown once. Read-outs that look alike come from different tables or passages of the source.

Experiments:
[1] = Lu levels in tumor, kidney and liver of mice at 0.5 mg/kg
[2] = tested on: NCI-H460 tumor-bearing mice; experiment: H460 mouse tumor and plasma pharmacokinetics; type: in vivo; conditions: 25 mg/kg IV, individual animals
Protocol: (§1) Conjugate accumulation at 24 and 48 h in tumor and plasma of NCI-H460 tumor-bearing mice (lung cancer). Conjugate 1 was dosed at 25 mg/kg intravenously.

[3] = H460 mouse tumor and plasma pharmacokinetics; type: in vivo; conditions: mouse, 25 mg/kg IV, mean of 3 animals
Protocol: as §1

[4] = Biodistribution in healthy rat tissues; type: in vivo; conditions: 5 mg/kg, healthy rats; for level at time molar: rat
Protocol: Biodistributions of the conjugates were studied. Conjugate 1 was dosed at 5 mg/kg to healthy rats. The amount of Conjugate 1 and lutetium from Conjugate 1 in rat spleen, kidney, brain, liver and bone marrow was measured.

[5] = tested on: NCI-H460 tumor-bearing mice; experiment: H460 mouse tumor and plasma pharmacokinetics; type: in vivo; conditions: 25 mg/kg IV; 1 h; individual animals
[6] = H460 mouse tumor and plasma pharmacokinetics; type: in vivo; conditions: mouse, 25 mg/kg IV, mean of 3 animals; remark: listed apart in the source
[7] = tested on: H69 tumor model mice; experiment: Biodistribution in H69 tumor model; conditions: 5 mg/kg; 24 h; H69
Description: (§2) In other studies, biodistribution of the conjugates was studied with H460 and H69 tumor models.

[8] = Biodistribution in H69 tumor model; conditions: mouse, in vivo, 5 mg/kg, Tumor Levels, 24 h, H69, 5 mg/kg; H69
Description: as §2

[9] = Biodistribution in H460 tumor model; conditions: mouse, in vivo, 5 mg/kg, Tumor Levels, 24 h
Description: as §2

[10] = tested on: H460 tumor model mice; experiment: Biodistribution in H460 tumor model; conditions: 5 mg/kg
Description: as §2

[11] = Plasma profile in male SD rats; type: in vivo, rat; conditions: 5 mg/kg IV; for Vd: male, SD, iv, 5 mg/kg
Protocol: Plasma profile for Conjugate 1 at 5 mg/kg dose (via IV) in male SD rats was obtained. Plasma profile for lutetium from Conjugate 1 was also measured.

[12] = plasma, read-out: Compound 1 Conc. in NCI-H460 Mouse Plasma, Mean
[13] = tumor, read-out: Compound 1 Conc. in NCI-H460 Mouse Tumor, Mean
[14] = H460 and H69 tumor models, Conjugate 1 vs Conjugate 2

Structure (SMILES): CCNC(=O)c1nnc(-c2cc(C(C)C)c(O)cc2O)n1-c1ccc(CN2CCN(C(=O)CN3CCN4CCN5CCN(CC3)CC(=O)[O][Lu]([O]C(=O)C5)[O]C(=O)C4)CC2)cc1 [Conjugate 1]
- Average Lu in Liver [1]: 23.85 % ID/g
- Average Lu in kidney [1]: 1.00 % ID/g
- Average Lu in tumor [1]: 1.28 % ID/g
- Compound 1 Conc. in NCI-H460 Mouse Plasma ([2]; 1 h): 1.07 µM and 1.04 µM and 7.98 µM
- Compound 1 Conc. in NCI-H460 Mouse Plasma ([2]; 24 h): 0.020 μM (2×) and 0.046 μM
- Compound 1 Conc. in NCI-H460 Mouse Tumor ([2]; 24 h): 3.85 µM and 4.01 µM and 4.26 µM
- Compound 1 Conc. in NCI-H460 Mouse Plasma ([2]; 48 h): 0.016 µM and 0.013 µM and 0.020 µM
- Compound 1 Conc. in NCI-H460 Mouse Tumor ([2]; 48 h): 1.95 µM and 3.09 µM and 3.10 µM
- level at time molar at 24 h [3, 12]: 29 nM
- level at time molar at 48 h [3, 12]: 16 nM
- level at time molar at 24 h [3, 13]: 4040 nM
- level at time molar at 48 h [3, 13]: 2710 nM
- Conjugate 1 Conc., Bone marrow ([4]; individual animals A1-A3): 0.063 µM and 0.664 µM and 0.838 µM
- Conjugate 1 Conc., Kidney ([4]; individual animals A1-A3): 7.75 µM and 7.50 µM and 8.05 µM
- Conjugate 1 Conc., Liver ([4]; individual animals A1-A3): 1.50 µM and 2.46 µM and 3.33 µM
- Conjugate 1 Conc., Spleen ([4]; individual animals A1-A3): 0.148 µM and 0.134 µM and 0.232 µM
- Lu from Conjugate 1 Conc., Bone marrow ([4]; individual animals A1-A3): 0.030 µM and 0.021 µM and 0.022 µM
- Lu from Conjugate 1 Conc., Brain ([4]; individual animals A1-A3): <BLQ
- Lu from Conjugate 1 Conc., Kidney ([4]; individual animals A1-A3): 3.93 µM and 4.14 µM and 4.44 µM
- Lu from Conjugate 1 Conc., Liver ([4]; individual animals A1-A3): 2.34 µM and 2.25 µM and 3.47 µM
- Lu from Conjugate 1 Conc., Spleen ([4]; individual animals A1-A3): 0.154 µM and 0.163 µM and 0.198 µM
- Lu from Conjugate 1 Conc., Bone marrow, Mean ([4]; mean): 0.024 µM
- Lu from Conjugate 1 Conc., Brain, Mean ([4]; mean): <BLQ
- Lu from Conjugate 1 Conc., Kidney, Mean ([4]; mean): 4.17 µM
- Lu from Conjugate 1 Conc., Spleen, Mean ([4]; mean): 0.172 µM
- level at time molar ([4]; bone marrow, mean, read-out: Conjugate 1 Conc., Bone marrow, Mean): 522 nM
- level at time molar ([4]; brain, individual animals A1-A3, read-out: Conjugate 1 Conc., Brain): 37 nM
- level at time molar ([4]; brain, mean, read-out: Conjugate 1 Conc., Brain, Mean): 49 nM
- level at time molar ([4]; kidney, mean, read-out: Conjugate 1 Conc., Kidney, Mean): 7770 nM
- level at time molar ([4]; liver, mean, read-out: Conjugate 1 Conc., Liver, Mean): 2430 nM
- level at time molar ([4]; spleen, mean, read-out: Conjugate 1 Conc., Spleen, Mean): 171 nM
- Compound 1 Conc. in NCI-H460 Mouse Tumor [5]: 9.30 µM and 7.05 µM and 11.1 µM
- level at time molar at 1 h [6, 12]: 3360 nM
- level at time molar at 1 h [6, 13]: 9130 nM
- Tumor:liver ratio, 24 h, H69 [7]: 0.18
- level at time molar at 24 h [8]: 1610 nM
- level at time molar at 24 h ([9]; H460 (1), H460 study (1)): 1740 nM
- level at time molar at 24 h ([9]; H460 (2), H460 study (2)): 2490 nM
- Tumor:liver ratio, 24 h, H460 (1) ([10]; 24 h, H460 study (1)): 0.16
- Tumor:kidney ratio, 24 h, H460 (2) ([10]; 24 h, H460 study (2)): 1.8
- Tumor:liver ratio, 24 h, H460 (2) ([10]; 24 h, H460 study (2)): 1.2
- Clearance from plasma ([10]; H460 and H69 tumor models): clear rapidly from plasma
- Tumor retention (comparison) [10, 14]: similar
- Tumor uptake (comparison) [10, 14]: noticeably higher than Conjugate 2
- tumor:kidney ratio ([10]; H460 tumor model): around 2
- tumor:liver ratios ([10]; at 24 h, across H460 and H69 tumor models): 0.1-1
- t1/2 ([11]; analyte Conjugate 1): 1.45 H
- t1/2 ([11]; analyte Lu from Conjugate 1): 0.56 H
- Vd ([11]; rat, analyte Conjugate 1, read-out: Vss_obs): 0.483 L/kg
- Vd ([11]; rat, analyte Conjugate 1, read-out: Vz_obs): 1.44 L/kg
- AUC(0-t) ([11]; rat, analyte Conjugate 1): 7.31 µM·h
- Cmax ([11]; rat, analyte Conjugate 1): 14200 nM
- AUC(0-inf) ([11]; rat, analyte Conjugate 1, read-out: AUC 0-inf_obs): 7.34 µM·h
- clearance ([11]; rat, analyte Conjugate 1, read-out: Cl-obs): 11.1 mL/min/kg
